Source: patent publication CN114230673A (dated 2022)

Assays:
Test in all cases: ELISA, biotinylated recombinant protein on streptavidin plate, HRP anti-His detection
生物素标记重组人BCMA (rhBCMA) = molecular target: T1, 生物素标记重组人BCMA (rhBCMA) (human, UniProt Q02223 1-54, biotin label (site not stated))
T1 construct: Bought protein
T1 sequence (looked up): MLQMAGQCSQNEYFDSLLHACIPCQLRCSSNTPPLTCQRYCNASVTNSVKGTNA

生物素标记重组人CD40 (rhCD40) = molecular target: T2, 生物素标记重组人CD40 (rhCD40) (human, UniProt P25942 21-193, biotin label (site not stated))
T2 construct: Bought protein

生物素标记重组人CD27 (rhCD27) = molecular target: T3, 生物素标记重组人CD27 (rhCD27) (human, UniProt P26842 21-192, limits assumed, biotin label (site not stated))
T3 construct: Bought protein
T3 sequence (looked up): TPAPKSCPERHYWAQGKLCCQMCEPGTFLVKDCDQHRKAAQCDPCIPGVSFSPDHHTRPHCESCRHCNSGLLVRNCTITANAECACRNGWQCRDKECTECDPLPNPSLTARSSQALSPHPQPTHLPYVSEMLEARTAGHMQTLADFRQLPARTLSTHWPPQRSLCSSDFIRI

Measured: binding result

T2 sequence (P25942 21-193 limits assumed): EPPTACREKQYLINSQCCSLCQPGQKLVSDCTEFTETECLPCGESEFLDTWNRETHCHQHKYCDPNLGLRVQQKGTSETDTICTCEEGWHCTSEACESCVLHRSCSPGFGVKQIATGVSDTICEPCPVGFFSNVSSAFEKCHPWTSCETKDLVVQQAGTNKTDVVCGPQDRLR

B1: anti-CD19 scFv (scFv)
scFv: DIQMTQTTSSLSASLGDRVTISCRASQDISKYLNWYQQKPDGTVKLLIYHTSRLHSGVPSRFSGSGSGTDYSLTISNLEQEDIATYFCQQGNTLPYTFGGGTKLEITGGGGSGGGGSGGGGSEVKLQESGPGLVAPSQSLSVTCTVSGVSLPDYGVSWIRQPPRKGLEWLGVIWGSETTYYNSALKSRLTIIKDNSKSQVFLKMNSLQTDDTAIYYCAKHYYYGGSYAMDYWGQGTSVTVSS
notes: Soluble scFv used in the ELISA and flow cytometry; also called CD19抗体; 小鼠抗人anti CD19-scFv抗体; not shown: His tag implied by the anti-His detection antibody
no binding: all assays above
